According to patent US7135170B2 (ZymoGenetics, Inc., priority 2002, dated 2006):

Tests used:
zcyto24 = target: T1, zcyto24 (Mus musculus, UniProt Q4VK74); assay: Soluble receptor inhibition of ligand-induced ISRE signaling, 293 HEK cells overexpressing zcytor19: zcyto24; type: cell-based; details: ligand Zcyto24 10 ng/ml; soluble receptor 10 micrograms/ml; 4-hour
T1 construct: The mature polypeptide comprises amino acid residue 29 (Asp) to amino acid residue 202 (Val)
T1 sequence (Q4VK74 20-193): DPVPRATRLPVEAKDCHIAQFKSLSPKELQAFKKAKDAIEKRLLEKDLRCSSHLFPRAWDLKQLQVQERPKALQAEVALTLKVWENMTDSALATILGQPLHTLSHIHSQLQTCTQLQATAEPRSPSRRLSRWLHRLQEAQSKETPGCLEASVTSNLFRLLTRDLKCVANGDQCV
Excerpt: (§1) A signal transduction reporter assay can be used to show the inhibitor properties of zcytor19-Fc4 homodimeric and zcytor19-Fc/CRF2-4-Fc heterodimeric soluble receptors on zcyto20, zcyto21and zcyto24 signaling. Human embryonal kidney (HEK) cells overexpressing the zcytor19 receptor are transfected with a reporter plasmid containing an interferon-stimulated response element (ISRE) driving transcription of a luciferase reporter gene. Luciferase activity following stimulation of transfected cells with ligands (including zcyto20 (SEQ ID NO:18), zcyto21 (SEQ ID NO:20), zcyto24 (SEQ ID NO:8)) reflects the interaction of the ligand with soluble receptor.
(§2) 293 HEK cells overexpressing zcytor19 were transfected as follows: 700,000 293 cells/well (6 well plates) were plated approximately 18 h prior to transfection in 2 milliliters DMEM+10% fetal bovine serum. Per well, 1 microgram pISRE-Luciferase DNA (Stratagene) and 1 microgram pIRES2-EGFP DNA (Clontech,) were added to 6 microliters Fugene 6 reagent (Roche Biochemicals) in a total of 100 microliters DMEM. This transfection mix was added 30 minutes later to the pre-plated 293 cells. Twenty-four hours later the transfected cells were removed from the plate using trypsin-EDTA and replated at approximately 25,000 cells/well in 96 well microtiter plates. Approximately 18 h prior to ligand stimulation, media was changed to DMEM+0.5% FBS.
(§3) The signal transduction reporter assays were done as follows: Following an 18 h incubation at 37° C. in DMEM+0.5% FBS, transfected cells were stimulated with 10 ng/ml zcyto20, zcyto2l or zcyto24 and 10 micrograms/ml of the following soluble receptors; human zcytor19-Fc homodimer, human zcytor19-Fc/human CRF2-4-Fc heterodimer, human CRF2-4-Fc homodimer, murine zcytor19-Ig homodimer. Following a 4-hour incubation at 37° C., the cells were lysed, and the relative light units (RLU) were measured on a luminometer after addition of a luciferase substrate. The results obtained are shown as the percent inhibition of ligand-induced signaling in the presence of soluble receptor relative to the signaling in the presence of PBS alone.

zcyto20 = target: T2, zcyto20 (Homo sapiens, UniProt Q8IZJ0); assay: Soluble receptor inhibition of ligand-induced ISRE signaling, 293 HEK cells overexpressing zcytor19: zcyto20; type: cell-based; details: for Percent Inhibition of Ligand-induced ISRE Signaling by Soluble Receptors: ligand Zcyto20 10 ng/ml, soluble receptor 10 micrograms/ml, 4-hour; for inhibition of zcyto20, zcyto21 and zcyto24-induced signaling: text summary over the three ligands
T2 sequence (Q8IZJ0 26-200): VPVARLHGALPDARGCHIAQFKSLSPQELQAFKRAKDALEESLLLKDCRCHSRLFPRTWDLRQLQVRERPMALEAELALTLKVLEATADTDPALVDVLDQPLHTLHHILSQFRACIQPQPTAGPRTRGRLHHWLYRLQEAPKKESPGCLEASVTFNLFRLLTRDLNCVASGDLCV
Excerpt: as §1, §2, §3

zcyto21 = zcyto21 (Homo sapiens, UniProt Q8IU54); assay: Soluble receptor inhibition of ligand-induced ISRE signaling, 293 HEK cells overexpressing zcytor19: zcyto21; type: cell-based; details: ligand Zcyto21 10 ng/ml; soluble receptor 10 micrograms/ml; 4-hour
Excerpt: as §1, §2, §3

[1] = system: ISG gene expression (OAS, Pkr, Mx1) in liver, spleen and blood; assay: ISG gene expression in liver, spleen and blood of injected mice (real-time PCR); type: in vivo, mouse; details: liver, 100 μg i.v.; for PKR: mice (Naive 3.70); for OAS: mice (Naive 6.60); for Mx1: mice (Naive 10.98)
Protocol: Mice were sacrificed at various time points (1 hr-48 hr). Spleens and livers were isolated from mice, and RNA was isolated. RNA was also isolated from the blood cells. The cells were pelleted and RNA isolated from pellets using RNAEasy®-kit (Qiagen). RNA was treated with DNase (Amicon) to rid RNA of any contaminating DNA. cDNA was generated using Perkin-Elmer RT mix (Perkin-Elmer). ISG gene induction was measured by real-time PCR using primers and probes specific for mouse OAS, Pkr and Mx1. To obtain quantitative data, HPRT real-time PCR was duplexed with ISG PCR. A standard curve was calculated using known amounts of IFN-stimulated mouse PBLs. All data are shown as expression relative to internal HPRT expression.
Results shown are fold expression relative to HPRT gene expression. […] The data shown is the average expression from 5 different animals/group.
Mice were injected with 100 μg of proteins i.v. Data shown is fold expression over HPRT expression from livers of mice. Similar data was obtained from blood and spleens of mice.

HuCRF2-4-Fc: human CRF2-4-Fc homodimeric soluble receptor
Percent Inhibition of Ligand-induced ISRE Signaling by Soluble Receptors (zcyto24): 82% | Percent Inhibition of Ligand-induced ISRE Signaling by Soluble Receptors (zcyto20): 80% | inhibition of zcyto20, zcyto21 and zcyto24-induced signaling (zcyto20): No significant effects | Percent Inhibition of Ligand-induced ISRE Signaling by Soluble Receptors (zcyto21): 79%

Huzcytor19-Fc/huCRF2-4-Fc: human zcytor19-Fc/human CRF2-4-Fc heterodimeric soluble receptor
Percent Inhibition of Ligand-induced ISRE Signaling by Soluble Receptors (zcyto24): 47% | Percent Inhibition of Ligand-induced ISRE Signaling by Soluble Receptors (zcyto20): 16% | Percent Inhibition of Ligand-induced ISRE Signaling by Soluble Receptors (zcyto21): 16%

B1: MetIL-29-PEG: E. coli derived IL-29 with N-terminal Met, conjugated to PEG (conjugate, UniProt Q8IU54 20-200, looked up)
Interferon lambda-1: GPVPTSKPTTTGKGCHIGRFKSLSPQELASFKKARDALEESLKLKNWSCSSPVFPGNWDLRLLQVRERPVALEAELALTLKVLEAAAGPALEDVLDQPLHTLHHILSQLQACIQPQPTAGPRPRGRLHHWLHRLQEAPKKESAGCLEASVTFNLFRLLTRDLKYVADGNLCLRTSTHPEST
modifications: N-terminal Met; PEG
notes: E. coli derived IL-29 with N-terminal Met, conjugated to PEG
PKR ([1]; 3 hr): 18.24 fold expression over HPRT expression | OAS ([1]; 3 hr): 91.29 fold expression over HPRT expression | Mx1 ([1]; 3 hr): 537.51 fold expression over HPRT expression | PKR ([1]; 6 hr): 13.93 fold expression over HPRT expression | OAS ([1]; 6 hr): 65.93 fold expression over HPRT expression | Mx1 ([1]; 6 hr): 124.99 fold expression over HPRT expression | PKR ([1]; 12 hr): 4.99 fold expression over HPRT expression | OAS ([1]; 12 hr): 54.04 fold expression over HPRT expression | Mx1 ([1]; 12 hr): 33.58 fold expression over HPRT expression | PKR ([1]; 24 hr): 3.77 fold expression over HPRT expression | OAS ([1]; 24 hr): 20.81 fold expression over HPRT expression | Mx1 ([1]; 24 hr): 35.82 fold expression over HPRT expression

B2: Muzcytor19-Ig: murine zcytor19-Ig homodimeric soluble receptor (protein)
chain: RPRLAPPRNVTLFSQNFTVYLTWLPGLGSPPNVTYFVTYQSYIKTGWRPVEHCAGIKALVCPLMCLKKLNLYSKFKGRVQAASAHGRSPRVESRYLEYLFDVELAPPTLVLTQMEKILRVNATYQLPPCMPSLELKYQVEFWKEGLGSKTLFPDTPYGQPVQIPLQQGASRRHCLSARTVYTLIDIKYSQFSEPSCIFLEAPGDKRA
modifications: left off: small tags and cut ends
notes: murine zcytor19-Ig homodimeric soluble receptor
Percent Inhibition of Ligand-induced ISRE Signaling by Soluble Receptors (zcyto24): 89% | Percent Inhibition of Ligand-induced ISRE Signaling by Soluble Receptors (zcyto20): 91% | inhibition of zcyto20, zcyto21 and zcyto24-induced signaling (zcyto20): No significant effects | Percent Inhibition of Ligand-induced ISRE Signaling by Soluble Receptors (zcyto21): 103%

B3: Huzcytor19-Fc: human zcytor19-Fc homodimeric soluble receptor (protein)
chain: RPRLAPPQNVTLLSQNFSVYLTWLPGLGNPQDVTYFVAYQSSPTRRRWREVEECAGTKELLCSMMCLKKQDLYNKFKGRVRTVSPSSKSPWVESEYLDYLFEVEPAPPVLVLTQTEEILSANATYQLPPCMPPLDLKYEVAFWKEGAGNKTLFPVTPHGQPVQITLQPAASEHHCLSARTIYTFSVPKYSKFSKPTCFLLEVPEAN
modifications: left off: a dimerising Fc or GST
notes: human zcytor19-Fc homodimeric soluble receptor
Percent Inhibition of Ligand-induced ISRE Signaling by Soluble Receptors (zcyto24): 90% | Percent Inhibition of Ligand-induced ISRE Signaling by Soluble Receptors (zcyto20): 92% | Percent Inhibition of Ligand-induced ISRE Signaling by Soluble Receptors (zcyto21): 45%
